Experimental data reported in patent US20120277142A1 (HANALL BIOPHARMA, published 2012).

B1: TNFRI126-A12 (receptor)
chain: MDSVCPQGKYIHPQNNSICCTKCHKGTYLYNDCPGPGQDTDCRECESGSFTANENFLPACLSCSKCRKEMGQVEISSCTVDRDTVCGCRKNQYRHYWSENLFQCFNCSLCLNGTVHLSCQEKQNTVC
notes: Met-TNFRI126 mutant made in E. coli
B2: TNFRI126-A13 (receptor)
chain: MDSVCPQGKYIHPQNNSICCTKCHKGTYLYNDCPGPGQDTDCRECESGSFTAQENFLPACLSCSKCRKEMGQVEISSCTVDRDTVCGCRKNQYRHYWSENLFQCFNCSLCLNGTVHLSCQEKQNTVC
notes: as for B1
B3: TNFRI126-A14 (receptor)
chain: MDSVCPQGKYIHPQNNSICCTKCHKGTYLYNDCPGPGQDTDCRECESGSFTATENFLPACLSCSKCRKEMGQVEISSCTVDRDTVCGCRKNQYRHYWSENLFQCFNCSLCLNGTVHLSCQEKQNTVC
notes: as for B1
B4: TNFRI126-A15 (receptor)
chain: MDSVCPQGKYIHPQNNSICCTKCHKGTYLYNDCPGPGQDTDCRECESGSFTAYENFLPACLSCSKCRKEMGQVEISSCTVDRDTVCGCRKNQYRHYWSENLFQCFNCSLCLNGTVHLSCQEKQNTVC
notes: as for B1
B5: TNFRI126-A16 (receptor)
chain: MDSVCPQGKYIHPQNNSICCTKCHKGTYLYNDCPGPGQDTDCRECESGSFTAKENFLPACLSCSKCRKEMGQVEISSCTVDRDTVCGCRKNQYRHYWSENLFQCFNCSLCLNGTVHLSCQEKQNTVC
notes: as for B1
B6: TNFRI126-A17 (receptor)
chain: MDSVCPQGKYIHPQNNSICCTKCHKGTYLYNDCPGPGQDTDCRECESGSFTARENFLPACLSCSKCRKEMGQVEISSCTVDRDTVCGCRKNQYRHYWSENLFQCFNCSLCLNGTVHLSCQEKQNTVC
notes: as for B1
B7: TNFRI126-A18 (receptor)
chain: MDSVCPQGKYIHPQNNSICCTKCHKGTYLYNDCPGPGQDTDCRECESGSFTAHENFLPACLSCSKCRKEMGQVEISSCTVDRDTVCGCRKNQYRHYWSENLFQCFNCSLCLNGTVHLSCQEKQNTVC
notes: as for B1
B8: TNFRI126-A19 (receptor)
chain: MDSVCPQGKYIHPQNNSICCTKCHKGTYLYNDCPGPGQDTDCRECESGSFTADENFLPACLSCSKCRKEMGQVEISSCTVDRDTVCGCRKNQYRHYWSENLFQCFNCSLCLNGTVHLSCQEKQNTVC
notes: as for B1
B9: TNFRI126-A20 (receptor)
chain: MDSVCPQGKYIHPQNNSICCTKCHKGTYLYNDCPGPGQDTDCRECESGSFTAEENFLPACLSCSKCRKEMGQVEISSCTVDRDTVCGCRKNQYRHYWSENLFQCFNCSLCLNGTVHLSCQEKQNTVC
notes: as for B1
B10: TNFRI126-A21 (receptor)
chain: MDSVCPQGKYIHPQNNSICCTKCHKGTYLYNDCPGPGQDTDCRECESGSFTAIENFLPGCLSCSKCRKEMGQVEISSCTVDRDTVCGCRKNQYRHYWSENLFQCFNCSLCLNGTVHLSCQEKQNTVC
notes: as for B1
B11: TNFRI126-A22 (receptor)
chain: MDSVCPQGKYIHPQNNSICCTKCHKGTYLYNDCPGPGQDTDCRECESGSFTAMENFLPGCLSCSKCRKEMGQVEISSCTVDRDTVCGCRKNQYRHYWSENLFQCFNCSLCLNGTVHLSCQEKQNTVC
notes: as for B1
B12: TNFRI126-A23 (receptor)
chain: MDSVCPQGKYIHPQNNSICCTKCHKGTYLYNDCPGPGQDTDCRECESGSFTAIPNFLLACLSCSKCRKEMGQVEISSCTVDRDTVCGCRKNQYRHYWSENLFQCFNCSLCLNGTVHLSCQEKQNTVC
notes: as for B1
B13: TNFRI126-A24 (receptor)
chain: MDSVCPQGKYIHPQNNSICCTKCHKGTYLYNDCPGPGQDTDCRECESGSFTAIPNFLIACLSCSKCRKEMGQVEISSCTVDRDTVCGCRKNQYRHYWSENLFQCFNCSLCLNGTVHLSCQEKQNTVC
notes: as for B1
B14: TNFRI126-A25 (receptor)
chain: MDSVCPQGKYIHPQNNSICCTKCHKGTYLYNDCPGPGQDTDCRECESGSFTAIPNFLFACLSCSKCRKEMGQVEISSCTVDRDTVCGCRKNQYRHYWSENLFQCFNCSLCLNGTVHLSCQEKQNTVC
notes: as for B1
B15: TNFRI126-A26 (receptor)
chain: MDSVCPQGKYIHPQNNSICCTKCHKGTYLYNDCPGPGQDTDCRECESGSFTAIPNFLPGCLSCSKCRKEMGQVEISSCTVDRDTVCGCRKNQYRHYWSENLFQCFNCSLCLNGTVHLSCQEKQNTVC
notes: as for B1
B16: TNFRI126-A27 (receptor)
chain: MDSVCPQGKYIHPQNNSICCTKCHKGTYLYNDCPGPGQDTDCRECESGSFTAIPNFLLGCLSCSKCRKEMGQVEISSCTVDRDTVCGCRKNQYRHYWSENLFQCFNCSLCLNGTVHLSCQEKQNTVC
notes: as for B1
B17: TNFRI126-A29 (receptor)
chain: MDSVCPQGKYIHPQNNSICCTKCHKGTYLYNDCPGPGQDTDCRECESGSFTAIPNFLFGCLSCSKCRKEMGQVEISSCTVDRDTVCGCRKNQYRHYWSENLFQCFNCSLCLNGTVHLSCQEKQNTVC
notes: as for B1
B18: TNFRI126-A30 (receptor)
chain: MDSVCPQGKYIHPQNNSICCTKCHKGTYLYNDCPGPGQDTDCRECESGSFTAIPNFLPACLSCSKCRKEMGQVEISSCTVDRDTVCGCRKNQYRHYWSENLFQCFNCSLCLNGTVHLSCQEKQNTVC
notes: as for B1
B19: TNFRI126-S31 (receptor)
chain: MDSVCPQGKYIHPQNNSICCTKCHKGTYVYNDCPGPGQDTDCRECESGSFTAIENFLPACLSCSKCRKEMGQVEISSCTVDRDTVCGCRKNQYRHYWSENLFQCFNCSLCLNGTVHLSCQEKQNTVC
notes: Met-TNFRI126 superlead mutant made in E. coli
B20: TNFRI126-S36 (receptor)
chain: MDSVCPQGKYIHPQNNSICCTKCHKGTYVYNDCPGPGQDTDCRECESGSFTAMENFLPACLSCSKCRKEMGQVEISSCTVDRDTVCGCRKNQYRHYWSENLFQCFNCSLCLNGTVHLSCQEKQNTVC
notes: as for B19
B21: TNFRI126-S41 (receptor)
chain: MDSVCPQGKYIHPQNNSICCTKCHKGTYVYNDCPGPGQDTDCRECESGSFTAHENFLPACLSCSKCRKEMGQVEISSCTVDRDTVCGCRKNQYRHYWSENLFQCFNCSLCLNGTVHLSCQEKQNTVC
notes: as for B19
B22: TNFRI126-S46 (receptor)
chain: MDSVCPQGKYIHPQNNSICCTKCHKGTYVYNDCPGPGQDTDCRECESGSFTAIENFLPGCLSCSKCRKEMGQVEISSCTVDRDTVCGCRKNQYRHYWSENLFQCFNCSLCLNGTVHLSCQEKQNTVC
notes: as for B19
B23: TNFRI126-S47 (receptor)
chain: MDSVCPQGKYIHPQNNSICCTKCHKGTYVYNDCPGPGQDTDCRECESGSFTAMENFLPGCLSCSKCRKEMGQVEISSCTVDRDTVCGCRKNQYRHYWSENLFQCFNCSLCLNGTVHLSCQEKQNTVC
notes: as for B19
B24: TNFRI126-S48 (receptor)
chain: MDSVCPQGKYIHPQNNSICCTKCHKGTYVYNDCPGPGQDTDCRECESGSFTAIPNFLPGCLSCSKCRKEMGQVEISSCTVDRDTVCGCRKNQYRHYWSENLFQCFNCSLCLNGTVHLSCQEKQNTVC
notes: as for B19
B25: TNFRI126-S53 (receptor)
chain: MDSVCPQGKYIHPQNNSICCTKCHKGTYVYNDCPGPGQDTDCRECESGSFTAIENFLPACLSCSKCRKEMGQVEISSCTVDRDTVCGCRKNQYRHYWSENLFQCFNCSLCLNGTVHLSCQEQQNTVC
notes: as for B19
B26: TNFRI126-S54 (receptor)
chain: MDSVCPQGKYIHPQNNSICCTKCHKGTYVYNDCPGPGQDTDCRECESGSFTAIENFLPACLSCSKCRKEMGQVEISSCTVDRDTVCGCRKNQYRHYWSENLFQCFNCSLCLNGTVHLSCQENQNTVC
notes: as for B19
B27: TNFRI126-S56 (receptor)
chain: MDSVCPQGKYIHPQNNSICCTKCHKGTYVYNDCPGPGQDTDCRECESGSFTAMENFLPACLSCSKCRKEMGQVEISSCTVDRDTVCGCRKNQYRHYWSENLFQCFNCSLCLNGTVHLSCQEQQNTVC
notes: as for B19
B28: TNFRI126-S57 (receptor)
chain: MDSVCPQGKYIHPQNNSICCTKCHKGTYVYNDCPGPGQDTDCRECESGSFTAMENFLPACLSCSKCRKEMGQVEISSCTVDRDTVCGCRKNQYRHYWSENLFQCFNCSLCLNGTVHLSCQENQNTVC
notes: as for B19

Target: T1, TNF-α (UniProt P01375 77-233, limits assumed)
T1 construct: also called tumor necrosis factor; ligand
Test: competition ELISA: sample vs plate-bound TNFRI190 for TNF-α, from IC50, relative to wild-type TNFRI126
Protocol: (§1) Each well was washed three times with 300 μL of washing buffer (0.05% Tween-20, PBS, pH 7.4) and incubated at room temperature for 2 hours with 300 μL of a blocking buffer (5% skim milk, PBS, pH 7.4). Then, each well was washed as mentioned above. A sample of interest was diluted to concentrations of 500 nM, 125 nM, 31 nM, 7.8 nM, 1.9 nM, 0.48 nM, 0.12 nM, and 0.03 nM in series and loaded in an amount of 100 μL into each well in duplicate. To each well was added 100 μL of 50 ng/ml TNF-α, followed by incubation at room temperature for 2 hours. After the wells were washed with a washing buffer, 100 μg/mL anti-TNF-α antibody solution was diluted 1/1000, added in an amount of 100 μL per each well, and incubated at room temperature for 2 hours. After the plates were washed with a washing buffer, a substrate was added in an amount of 100 μL to each well and reacted at room temperature for 15 min. In each well, 100 μL of the substrate 3,3′,5,5′-tetramethylbenzidine (RnD, Cat. No: DY999) was reacted at room temperature for 15 min, followed by adding 50 μL of 1.0 M sulfuric acid (Samchun Chemical, Cat. No: 52129) to each well to stop the reaction.
Affinity of Met-TNFRI and Met-TNFRI mutants for TNF-α was determined by measuring an absorbance change with concentration and evaluating IC₅₀ value by measuring an absorbance change with concentration.

T1 sequence (P01375 77-233 limits assumed): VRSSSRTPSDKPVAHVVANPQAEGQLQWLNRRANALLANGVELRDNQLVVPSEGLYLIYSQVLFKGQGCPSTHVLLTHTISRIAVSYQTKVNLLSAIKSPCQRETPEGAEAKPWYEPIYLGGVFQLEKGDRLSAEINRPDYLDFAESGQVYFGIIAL

Going from B1 to B2, the “Affinity (%)” value rises from 659% to 806%.

First: B3
Second: B4
The “Affinity (%)” value of the first is lower: 765% for the first, 941% for the second.

First: B5
Second: B6
The “Affinity (%)” value of the first is higher: 882% for the first, 771% for the second.

Compared with B7, B8 is lower in “Affinity (%)” value: 1010% for the first, 482% for the second.

Compared with B9, B10 is higher in “Affinity (%)” value: 782% for the first, 1400% for the second.

First: B11
Second: B12
The “Affinity (%)” value of the first is higher: 1430% for the first, 1100% for the second.

Compared with B13, B14 is lower in “Affinity (%)” value: 1060% for the first, 682% for the second.

Compared with B15, B16 is lower in “Affinity (%)” value: 1140% for the first, 894% for the second.

First: B17
Second: B18
The “Affinity (%)” value of the first is lower: 435% for the first, 952% for the second.

Target: T1, TNF-α
Test: as above
Remark: another data set of the same source
Protocol: as §1
The affinity of the Met-TNFRI for TNF-α was assayed using the same procedure as in [Experimental Example 1]

Compared with B19, B20 is higher in “Relative Affinity for Ligand (%)” value: 457% for the first, 489% for the second.

Going from B21 to B22, the “Relative Affinity for Ligand (%)” value falls from 432% to 412%.

Going from B23 to B24, the “Relative Affinity for Ligand (%)” value falls from 501% to 477%.

Compared with B25, B26 is lower in “Relative Affinity for Ligand (%)” value: 522% for the first, 448% for the second.

Going from B27 to B28, the “Relative Affinity for Ligand (%)” value falls from 602% to 465%.
